Test results published in KR20230175116A (dated 2023).

T1: DR3 on cells (DR3 stable cell line; DR3 on human PBMC T cells) (human, UniProt Q93038 25-417)
T1 construct: whole, on cells; Also used for the DR3 of hPBMC T cells in the NF-kB assays; also called 세포 표면에서 발현된 DR3; DR3 natural form
T1 sequence (looked up): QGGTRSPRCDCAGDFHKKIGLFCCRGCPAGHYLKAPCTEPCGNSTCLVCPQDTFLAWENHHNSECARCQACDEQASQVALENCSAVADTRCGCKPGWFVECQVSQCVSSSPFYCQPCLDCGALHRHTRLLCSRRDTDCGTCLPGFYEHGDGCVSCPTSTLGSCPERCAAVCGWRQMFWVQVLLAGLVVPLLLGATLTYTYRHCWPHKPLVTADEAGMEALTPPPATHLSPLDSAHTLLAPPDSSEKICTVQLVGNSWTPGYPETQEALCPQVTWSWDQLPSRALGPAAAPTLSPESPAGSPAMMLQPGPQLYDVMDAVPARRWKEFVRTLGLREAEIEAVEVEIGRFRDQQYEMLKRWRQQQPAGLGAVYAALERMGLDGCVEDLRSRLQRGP

B1: 6-2 mAb (antibody, V domains shown)
VH: QVQLVQSGGGLVQPGGSLRLSCAASGFTFSSYSMNWVRQAPGKGLEWVSYISSSSSTIYYADSVKGRFTISRDNAKNSLYLQMNSLRAEDTAVYYCARWDGYCSGGSCYSGMDYWGQGTLVTVS
VL: not shown
notes: Human monoclonal IgG; also called clone 6-2; clone 6-2 IgG1
B2: 6-15 mAb (antibody, V domains shown)
VH: B1 VH
VL: DIEMTQSPSSLSASVGDKVTITCQASQDISNYLNWYQQKPGKAPKLLIYDASNLETGVPSRFSGSGSGTDSTFTISSLQPEDIATYYCQQYDNLPLTFGGGTKVEIK
notes: Human monoclonal IgG (detected with anti-human IgG Fc); also called clone 6-15
B3: 항-DR3 4-4 항체 (4-4 mAb) (antibody, V domains shown)
VH: EVQLVESGGGLVKPGGSLRLSCAASGFTFSDYYMSWIRQAPGKGLEWVSYISSSSSYTNYADSVKGRFTISRDNAKNSLYLQMNSLRAEDTAVYYCASNVDTAMVGAFDIWGQGTLVTVS
VL: DIEMTQSPSSVSASVGDTVTITCRASQHISNWLAWYQQKPGQAPKFLIYTASNLQSGVPSRFSGSGYGTDFTLTISGLQPEDFATYYCQQADSFPLTFGGGTKVDIK
notes: also called clone 4-4; clone 4-4 IgG1

biological target: T1, DR3 on cells (DR3 stable cell line; DR3 …); assay: FACS, DR3 stable cell line, 2 ug/ml mAb, anti-human IgG PE

Binding result, binds:
B1
B2
B3
